Article PMC10324392, “Enabling Peptide Ligation at Aromatic Junction Mimics via Native Chemical Ligation and Palladium-Mediated S-Arylation”

B1: E-box DNA probe (22 bp) (dsDNA)
DNA 1: CCGGCTGACACGTGGTATTAAT
DNA 2: ATTAATACCACGTGTCAGCCGG
B2: biotinylated E-box DNA probe (BLI) (dsDNA)
DNA 1: CCGGCTGACACGTGGTATTAAT
DNA 2: ATTAATACCACGTGTCAGCCGG

Columns and labels:
[1] = biological target: Max DNA-binding domain (synthetic, S-arylated);Myc DNA-binding domain (synthetic, S-arylated) (;, UniProt P61244;P01106 ;, F43C, then Cys43 S-arylated with Pd-1 to a Phe mimic|Y402C, then Cys402 …); experiment: EMSA; equimolar Myc and Max; 1 uM DNA; 0, 4, 8 uM protein; EMSA: 10 mM MES, 150 mM KCl, 1 mM MgCl2, 10% glycerol, room temperature 1 h, 10% TBE gel, pH not given; BLI: 1x PBS, 0.1% BSA, 0.02% Tween-20, streptavidin sensors, temperature not given; conditions: tags: ;; copies: 1;1; (22 bp, only one strand printed)
Max DNA-binding domain (synthetic, S-arylated);Myc DNA-binding domain (synthetic, S-arylated), sequence (P61244 22-102, stated change not applied, chain 1 of 2): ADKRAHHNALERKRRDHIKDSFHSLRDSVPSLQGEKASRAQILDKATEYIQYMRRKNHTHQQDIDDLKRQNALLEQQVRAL
Max DNA-binding domain (synthetic, S-arylated);Myc DNA-binding domain (synthetic, S-arylated), sequence (P01106 369-449, stated change not applied, chain 2 of 2): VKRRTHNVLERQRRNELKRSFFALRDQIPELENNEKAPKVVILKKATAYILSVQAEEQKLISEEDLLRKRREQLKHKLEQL

[2] = biological target: Max DNA-binding domain (synthetic, S-arylated) (UniProt P61244, F43C, then Cys43 S-arylated with Pd-1 to a Phe mimic); experiment: BLI; EMSA: 10 mM MES, 150 mM KCl, 1 mM MgCl2, 10% glycerol, room temperature 1 h, 10% TBE gel, pH not given; BLI: 1x PBS, 0.1% BSA, 0.02% Tween-20, streptavidin sensors, temperature not given; conditions: chain copies: 2; (22 bp, only one strand printed)
Max DNA-binding domain (synthetic, S-arylated), sequence (P61244 22-102 F43C): as the sequence (P61244 22-102, stated change not applied, chain 1 of 2) above, with F22C counted along it

Binder	binding result [1]	Kd [2]
B1	binds	
B2		14.8 ± 0.2 nM
